Biological target: GST-LOV2GIVe (L) (Avena sativa | , UniProt O49003)

B1: His-Gαi3 (rat) (natural protein)
chain: MGCTLSAEDKAAVERSKMIDRNLREDGEKAAKEVKLLLLGAGESGKSTIVKQMKIIHEDGYSEDECKQYKVVVYSNTIQSIIAIIRAMGRLKIDFGEAARADDARQLFVLAGSAEEGVMTSELAGVIKRLWRDGGVQACFSRSREYQLNDSASYYLNDLDRISQTNYIPTQQDVLRTRVKTTGIVETHFTFKELYFKMFDVGGQRSERKKWIHCFEGVTAIIFCVALSDYDLVLAEDEEMNRMHESMKLFDSICNNKWFTDTSIILFLNKKDLFEEKIKRSPLTICYPEYTGSNTYEEAAAYIQCQFEDLNRRKDTKEVYTHFTCATDTKNVQFVFDAVTDVIIKNNLKECGLY
In the case of B1, the Kd is reported as 270 nM.

From PMC7515630 (2020)
